The target in series [1] is XdpA, short chain dehydrogenase of the xdo operon (Agrobacterium bohemicum R89-1). In words: SEC; gel filtration chromatography, with SDS PAGE for the subunit. For orientation: In gel filtration, larger molecules generally elute earlier.
In series [2] the target is XdpR, TetR family transcriptional regulator of the xdo operon (Agrobacterium bohemicum R89-1). Nature of the series: SEC + native gel or EMSA; gel filtration; native (blue native, 7% PAGE) and SDS electrophoresis.
The target in series [3] is T1, XdpB (XdpBwt) (Agrobacterium tumefaciens, UniProt A0A0A0VDJ9). In words: spectrophotometric NADH oxidation at […] nm, Lineweaver-Burk. The following applies: read-out: Km^GTN; NADH co-substrate; pH 8; 25 °C; in vitro flavinated, recalculated to FMN saturation.
T1 sequence (A0A0A0VDJ9 entry or part of it): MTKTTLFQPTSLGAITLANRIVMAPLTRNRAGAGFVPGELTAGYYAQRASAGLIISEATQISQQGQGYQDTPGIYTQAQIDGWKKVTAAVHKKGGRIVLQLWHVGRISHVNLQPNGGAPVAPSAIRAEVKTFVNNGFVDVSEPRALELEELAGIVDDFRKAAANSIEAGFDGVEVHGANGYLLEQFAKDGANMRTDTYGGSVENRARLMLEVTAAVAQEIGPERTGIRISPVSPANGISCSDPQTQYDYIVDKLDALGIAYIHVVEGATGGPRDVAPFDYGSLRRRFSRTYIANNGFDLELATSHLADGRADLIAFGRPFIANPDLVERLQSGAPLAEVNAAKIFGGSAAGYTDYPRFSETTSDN
The target in series [4] is OPR3 (Solanum lycopersicum) (UniProt Q9FEW9). The following applies: cited from earlier work.
Series [5] relates to NC(=O)C1=CN([C@@H]2O[C@H](COP(=O)(O)OP(=O)(O)OC[C@H]3O[C@@H](n4cnc5c(N)ncnc54)[C@H](O)[C@@H]3O)[C@@H](O)[C@H]2O)C=CC1. In words: purified protein. To be noted: NADH co-substrate, pH 8, 25 °C, in vitro flavinated, recalculated to FMN saturation, except NADH varied (0.015 to 0.3 mM), co-substrate GTN.
For series [6], the target named is T1, XdpB (XdpBwt). In words: nanoDSF melting temperature. It is filed as binding. Further details: full length with N-terminal His tag (XdpBwt), made in E. coli, Ni-NTA and gel filtration; in vitro flavinated with FMN for kinetics; C-terminal residue Asn365. To be noted: apo form Tm 38.9 °C, 1 °C/min.

Chain of OPR3 (Q9FEW9 whole entry): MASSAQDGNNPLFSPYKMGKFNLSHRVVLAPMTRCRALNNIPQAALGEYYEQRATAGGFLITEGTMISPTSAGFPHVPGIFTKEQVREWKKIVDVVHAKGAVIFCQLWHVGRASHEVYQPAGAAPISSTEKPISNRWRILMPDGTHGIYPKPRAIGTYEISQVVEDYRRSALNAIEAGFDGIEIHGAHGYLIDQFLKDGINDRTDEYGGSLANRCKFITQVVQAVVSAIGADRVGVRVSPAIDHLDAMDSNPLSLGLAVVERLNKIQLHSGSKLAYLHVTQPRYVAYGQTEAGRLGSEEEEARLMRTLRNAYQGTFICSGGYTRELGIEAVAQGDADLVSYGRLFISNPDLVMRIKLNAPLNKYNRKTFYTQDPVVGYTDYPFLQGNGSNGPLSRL

By stoichiometry N is commonly meant a count of units in the complex or per binding partner. Take “XdpA, short chain dehydrogenase of the xdo operon (enzyme)”: in series [1], the stoichiometry N was found to be 2. In the case of “XdpR, TetR family transcriptional regulator of the xdo operon (natural protein)”, in series [2], the stoichiometry N was determined as 2. In general, Km refers to the substrate concentration at which the rate is half of its maximum. With `O=[N+]([O-])OCC(CO[N+](=O)[O-])O[N+](=O)[O-]` [GTN, glycerol trinitrate], the Km in series [3] is 460 ± 132 µM. The Kd is a measure of binding affinity in units of concentration. With OPR3 (from UniProt Q9FEW9), the Kd in series [4] is 30 µM. As for “XdpB (XdpBwt) (Agrobacterium tumefaciens)”, the Km in series [5] is 6 ± 1 µM. In the case of `Cc1cc2nc3c(=O)[nH]c(=O)nc-3n(C[C@H](O)[C@H](O)[C@H](O)COP(=O)(O)O)c2cc1C` [FMN, flavin mononucleotide], the “melting temperature of in vitro flavinated form” value in series [6] was 39.8 °C.

The record behind these values is PMC5891007, “The crystal structure of XdpB, the bacterial old yellow enzyme, in an FMN-free form” (PLoS ONE, 2018).
